PMC5584245 (Oncotarget, 2017)

T1: CD24-GST (Homo sapiens, UniProt P25063)
T1 construct: cluster of differentiation 24 (CD24) fused to GST; also called GST-CD24
T1 chain: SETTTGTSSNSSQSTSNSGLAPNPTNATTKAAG

T2: membrane CD24 on hepatoma cells (Huh-7, BEL-7402) (Homo sapiens, UniProt P25063)
T2 construct: cluster of differentiation 24 (CD24), GPI-linked membrane protein, endogenous on human hepatoma cell lines; also called CD24 receptors; CD24 ligand; source: endogenous, on Huh-7 and BEL-7402 cells
T2 chain: T1 chain

B1: hG7-BM3 (hVH-B2, hVL-B1) (antibody, V domains shown)
VH: QVQLVESGGGVVQPGRSLRLSCAASGFTFSRYWMSWVRQAPGKGLEWIAEINPDSSTINYTPSLRDKFTISRDNSKNTLYLQMSSLRAEDTAVYYCARQGDYWGQGTLVTVSS
VL: DIVMTQTPLSLSVTPGQPASISCKSSQSLLHSDGKTYLNWYLQKPGQSPQRLIYLVSKLDSGVPDRFSGSGSGTDFTLKISRVEAEDVGVYYCWQGAHFPYTFGQGTKLEIK
B2: chimeric antibody cG7 (antibody, V domains shown)
VH: QVKLEESGGGLVQPGGSLKISCAASGFDFSRYWMSWVRQAPGKGLEWIGEINPDSSTINYTPSLRDKFIISRDNAKNTLYLQMSKVRYEDTSLYYCARQGDYWGQGTSVTVSS
VL: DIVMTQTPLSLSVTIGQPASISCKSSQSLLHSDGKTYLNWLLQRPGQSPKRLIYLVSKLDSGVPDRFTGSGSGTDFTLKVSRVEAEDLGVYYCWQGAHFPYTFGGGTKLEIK
notes: murine VH of G7mAb (G7mAb-VH); human heavy-chain constant region of the chimeric antibody; murine VL of G7mAb (G7mAb-VL); human light-chain constant region of the chimeric antibody; Chimeric: murine G7mAb variable domains on human constant regions; The vectors of the laboratory hold IgG1 H and L chains and the constant region of the humanized antibodies is from Cetuximab; also called parental …

Experiments:
CD24-GST = target: T1, CD24-GST; test: SPR; Biacore X100; CD24-GST flowed over immobilized antibody; 1:1 binding model; procedure as in ref. 45; details: both partners purified
[1] = target: T2, membrane CD24 on hepatoma cells (Huh-7, …); test: flow cytometry on cells; antibody on Huh-7 and BEL-7402 hepatoma cells, also after RNA interference against CD24; procedure as in ref. 12; details: one partner purified

Binder	Kd (CD24-GST) [pM]	koff (CD24-GST) [s⁻¹]	kon (CD24-GST) [M⁻¹ s⁻¹]	binding rate to BEL-7402 cells [1] [%]	binding rate to Huh-7 cells [1] [%]
B1	570	–	–	–	–
B2	191	0.000336	1.76e+06	79.3	88.4
